Measured values taken from US20210101982A1 (Seagen, published 2021).

Key:
[1] = molecular target: PD-L1 on cells (cancer cell lines expressing PD-L1; PD-L1+ aAPC/CHO-K1 cells) (human, UniProt Q9NZQ7 19-290); experiment: cell-based or functional assay
[2] = molecular target: T1, human PD-L1 (Acro Biosciences) (human, UniProt Q9NZQ7 19-238); experiment: BLI (Octet Red 384), antibody on anti-human Fab-CH1 sensors, human PD-L1 in solution, monovalent;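 also: after association, a 1000 s dissociation phase ran in buffer without PD-L1, on- and off-rate constants came from fitting the binding curves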
T1 construct: Bought protein, used in solution as the analyte in BLI; also called hPD-L1; CD274
T1 sequence (Q9NZQ7 19-238 limits assumed): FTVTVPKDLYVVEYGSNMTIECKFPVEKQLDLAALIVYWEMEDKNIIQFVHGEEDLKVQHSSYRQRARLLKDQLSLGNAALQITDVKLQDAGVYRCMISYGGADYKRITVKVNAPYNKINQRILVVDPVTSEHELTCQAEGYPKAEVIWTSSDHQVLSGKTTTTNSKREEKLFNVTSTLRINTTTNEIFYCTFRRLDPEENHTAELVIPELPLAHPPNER

[3] = molecular target: T1, human PD-L1 (Acro Biosciences); experiment: BLI (Octet Red 384), antibody on sensors, human PD-L1 in solution; head prints x10^3 S^-1, read as x10^-3 as KD = koff/kon requires

PD-L1 on cells (cancer cell lines expressing PD-L1; PD-L1+ aAPC/CHO-K1 cells), sequence (Q9NZQ7 19-290): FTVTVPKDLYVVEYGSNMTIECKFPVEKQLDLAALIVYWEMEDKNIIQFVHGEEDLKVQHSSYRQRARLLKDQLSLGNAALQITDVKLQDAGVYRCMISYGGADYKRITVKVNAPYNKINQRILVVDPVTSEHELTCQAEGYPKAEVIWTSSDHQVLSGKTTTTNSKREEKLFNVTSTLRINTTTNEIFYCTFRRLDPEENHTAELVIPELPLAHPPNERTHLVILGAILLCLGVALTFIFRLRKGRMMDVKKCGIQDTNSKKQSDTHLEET

| Binder | Kd [2] | kon [2] | koff [3] | x50 (50% reduction in viability, CellTiter-Glo, 96 h) on 786-O cells [1] | x50 (50% reduction in viability, CellTiter-Glo, 96 h) on BXPC3 cells [1] | x50 (50% reduction in viability, CellTiter-Glo, 96 h) on KARPAS 299 cells [1] | x50 (50% reduction in viability, CellTiter-Glo, 96 h) on L540CY cells [1] | x50 (50% reduction in viability, CellTiter-Glo, 96 h) on MDA-MB-231 cells [1] |
| --- | --- | --- | --- | --- | --- | --- | --- | --- |
| SG-559-02 - vc-MMAE (antibody, human IgG1, kappa, V domains shown, vc-MMAE drug-linker, average DAR of 4; sites not stated in the example) VH: QVQLVQSGAEVKKPGSSVKVSCKTSGDTFSTYAISWVRQAPGQGLEWMGGIIPIFGKAHYAQKFQGRVTITADESTSTAYMELSSLRSEDTAVYFCARKFHFVSGSPFGMDVWGQGTTVTVSS VL: EIVLTQSPATLSLSPGERATLSCRASQSVSSALAWYQQKPGQAPRLLIYDASNRATGIPARFSGSGSGTDFTLTISSLEPEDFAVYYCQQRSNWPTFGQGTKVEIKR |  |  |  | > 3000 ng/mL | 19.1 ng/mL | 4.44 ng/mL | 26 ng/mL | 26 ng/mL |
| SG-559-03 - vc-MMAE (antibody, human IgG1, kappa, V domains shown, vc-MMAE drug-linker, average DAR of 4; sites not stated in the example) VH: QVQLVQSGAEVKKPGSSVKVSCKTSGDTFSTYAISWVRQAPGQGLEWMGGIIPIFGKAHYAQKFQGRVTITADESTSTAYMELSSLRSEDTAVYFCARKFHFVSGSPFGMDVWGQGTTVTVSS VL: not shown |  |  |  | > 3000 ng/mL | 16.4 ng/mL | 4.14 ng/mL | 20.9 ng/mL | 22.9 ng/mL |
| SG-559-04 - vc-MMAE (antibody, human IgG1, kappa, V domains shown, vc-MMAE drug-linker, average DAR of 4; sites not stated in the example) VH: QVQLVQSGAEVKKPGSSVKVSCKTSGDTFSTYAISWVRQAPGQGLEWMGGIIPIFGKAHYAQKFQGRVTITADESTSTAYMELSSLRSEDTAVYFCARKFHFVSGSGFGMDVWGQGTTVTVSS VL: not shown |  |  |  | > 3000 ng/mL | 17.3 ng/mL | 3.42 ng/mL | 33.1 ng/mL | 24.3 ng/mL |
| SG-559-02 - MP-PEG8-VKG-Camptothecin (antibody, human IgG1, kappa, V domains shown, MP-PEG8-VKG-Camptothecin drug-linker, average DAR of 8; sites not stated in the example) VH: QVQLVQSGAEVKKPGSSVKVSCKTSGDTFSTYAISWVRQAPGQGLEWMGGIIPIFGKAHYAQKFQGRVTITADESTSTAYMELSSLRSEDTAVYFCARKFHFVSGSPFGMDVWGQGTTVTVSS VL: EIVLTQSPATLSLSPGERATLSCRASQSVSSALAWYQQKPGQAPRLLIYDASNRATGIPARFSGSGSGTDFTLTISSLEPEDFAVYYCQQRSNWPTFGQGTKVEIKR |  |  |  | 283 ng/mL | 20.1 ng/mL | 6.72 ng/mL | 9.97 ng/mL | 10.2 ng/mL |
| SG-559-03 - MP-PEG8-VKG-Camptothecin (antibody, human IgG1, kappa, V domains shown, MP-PEG8-VKG-Camptothecin drug-linker, average DAR of 8; sites not stated in the example) VH: QVQLVQSGAEVKKPGSSVKVSCKTSGDTFSTYAISWVRQAPGQGLEWMGGIIPIFGKAHYAQKFQGRVTITADESTSTAYMELSSLRSEDTAVYFCARKFHFVSGSPFGMDVWGQGTTVTVSS VL: not shown |  |  |  | 1380 ng/mL | 62.5 ng/mL | 12.2 ng/mL | 13.8 ng/mL | 15.1 ng/mL |
| SG-559-04 - MP-PEG8-VKG-Camptothecin (antibody, human IgG1, kappa, V domains shown, MP-PEG8-VKG-Camptothecin drug-linker, average DAR of 8; sites not stated in the example) VH: QVQLVQSGAEVKKPGSSVKVSCKTSGDTFSTYAISWVRQAPGQGLEWMGGIIPIFGKAHYAQKFQGRVTITADESTSTAYMELSSLRSEDTAVYFCARKFHFVSGSGFGMDVWGQGTTVTVSS VL: not shown |  |  |  | 190 ng/mL | 23.3 ng/mL | 5.95 ng/mL | 10.7 ng/mL | 7.89 ng/mL |
| SG-559-07 (antibody, human IgG1, kappa, V domains shown) VH: QVQLVQSGAEVKKPGSSVKVSCKTSGDTFSTYAISWVRQAPGQGLEWMGGIIPIFGRAHYAQKFQGRVTITADESTSTAYMELSSLRSEDTAVYFCARKFHFVSGSPFGMDVWGQGTTVTVSS VL: not shown | 10 nM | 285000 M⁻¹ s⁻¹ | 0.00284 s⁻¹ |  |  |  |  |  |
| SG-559-02 (antibody, human IgG1, kappa, V domains shown) VH: QVQLVQSGAEVKKPGSSVKVSCKTSGDTFSTYAISWVRQAPGQGLEWMGGIIPIFGKAHYAQKFQGRVTITADESTSTAYMELSSLRSEDTAVYFCARKFHFVSGSPFGMDVWGQGTTVTVSS VL: EIVLTQSPATLSLSPGERATLSCRASQSVSSALAWYQQKPGQAPRLLIYDASNRATGIPARFSGSGSGTDFTLTISSLEPEDFAVYYCQQRSNWPTFGQGTKVEIKR | 33.3 nM | 420000 M⁻¹ s⁻¹ | 0.014 s⁻¹ |  |  |  |  |  |
| SG-559-04 (antibody, human IgG1, kappa, V domains shown) VH: QVQLVQSGAEVKKPGSSVKVSCKTSGDTFSTYAISWVRQAPGQGLEWMGGIIPIFGKAHYAQKFQGRVTITADESTSTAYMELSSLRSEDTAVYFCARKFHFVSGSGFGMDVWGQGTTVTVSS VL: not shown | 25.6 nM | 390000 M⁻¹ s⁻¹ | 0.01 s⁻¹ |  |  |  |  |  |
| SG-559-15 (antibody, human IgG1, kappa, V domains shown) VH: QVQLVQSGAEVKKPGSSVKVSCKTSGDTFSTYAISWVRQAPGQGLEWMGGIIPIFGKAHYAQKFQGRVTITADESTSTAYMELSSLRSEDTAVYFCARKFHFVSGSPFGMDVWGQGTTVTVSS VL: not shown | 7.5 nM | 462000 M⁻¹ s⁻¹ | 0.00347 s⁻¹ |  |  |  |  |  |
| SG-559-17 (antibody, human IgG1, kappa, V domains shown) VH: QVQLVQSGAEVKKPGSSVKVSCKTSGDTFSTYAISWVRQAPGQGLEWMGGIIPIFGKAHYAQKFQGRVTITADESTSTAYMELSSLRSEDTAVYFCARKFHFVSGSPFGMDVWGQGTTVTVSS VL: not shown | 12.5 nM | 456000 M⁻¹ s⁻¹ | 0.0057 s⁻¹ |  |  |  |  |  |
| SG-559-13 (antibody, human IgG1, kappa, V domains shown) VH: QVQLVQSGAEVKKPGSSVKVSCKTSGDTFSTYAISWVRQAPGQGLEWMGGIIPIFGKAHYAQKFQGRVTITADESTSTAYMELSSLRSEDTAVYFCARKFHFVSGSPFGMDVWGQGTTVTVSS VL: not shown | 4.3 nM | 381000 M⁻¹ s⁻¹ | 0.00162 s⁻¹ |  |  |  |  |  |
| SG-559-03 (antibody, human IgG1, kappa, V domains shown) VH: QVQLVQSGAEVKKPGSSVKVSCKTSGDTFSTYAISWVRQAPGQGLEWMGGIIPIFGKAHYAQKFQGRVTITADESTSTAYMELSSLRSEDTAVYFCARKFHFVSGSPFGMDVWGQGTTVTVSS VL: not shown | 24.5 nM | 490000 M⁻¹ s⁻¹ | 0.012 s⁻¹ |  |  |  |  |  |

Continued, in another order:

| Kd [2] | kon [2] | koff [3] | Binder | x50 (50% reduction in viability, CellTiter-Glo, 96 h) on 786-O cells [1] | x50 (50% reduction in viability, CellTiter-Glo, 96 h) on BXPC3 cells [1] | x50 (50% reduction in viability, CellTiter-Glo, 96 h) on KARPAS 299 cells [1] | x50 (50% reduction in viability, CellTiter-Glo, 96 h) on L540CY cells [1] | x50 (50% reduction in viability, CellTiter-Glo, 96 h) on MDA-MB-231 cells [1] |
| --- | --- | --- | --- | --- | --- | --- | --- | --- |
| 288 nM | 410000 M⁻¹ s⁻¹ | 0.118 s⁻¹ | SG-559-10 (antibody, human IgG1, kappa, V domains shown) VH: QVQLVQSGAEVKKPGSSVKVSCKTSGDTFSTYAISWVRQAPGQGLEWMGGIIPIFGKAHYAQKFQGRVTITADESTSTAYMELSSLRSEDTAVYFCARKFHFVSGAPFGMDVWGQGTTVTVSS VL: not shown |  |  |  |  |  |
| 8.9 nM | 399000 M⁻¹ s⁻¹ | 0.00355 s⁻¹ | SG-559-14 (antibody, human IgG1, kappa, V domains shown) VH: QVQLVQSGAEVKKPGSSVKVSCKTSGDTFSTYAISWVRQAPGQGLEWMGGIIPIFGKAHYAQKFQGRVTITADESTSTAYMELSSLRSEDTAVYFCARKFHFVSGSPFGMDVWGQGTTVTVSS VL: not shown |  |  |  |  |  |
| 79.9 nM | 313000 M⁻¹ s⁻¹ | 0.025 s⁻¹ | SG-559-06 (antibody, human IgG1, kappa, V domains shown) VH: QVQLVQSGAEVKKPGSSVKVSCKTSGDTFSTYAISWVRQAPGQGLEWMGGIIPIFGAAHYAQKFQGRVTITADESTSTAYMELSSLRSEDTAVYFCARKFHFVSGSPFGMDVWGQGTTVTVSS VL: not shown |  |  |  |  |  |
| 25.5 nM | 260000 M⁻¹ s⁻¹ | 0.00664 s⁻¹ | SG-559-09 (antibody, human IgG1, kappa, V domains shown) VH: QVQLVQSGAEVKKPGSSVKVSCKTSGDTFSTYAISWVRQAPGQGLEWMGGIIPIFGKAFYAQKFQGRVTITADESTSTAYMELSSLRSEDTAVYFCARKFHFVSGSPFGMDVWGQGTTVTVSS VL: not shown |  |  |  |  |  |
| 119 nM | 357000 M⁻¹ s⁻¹ | 0.0424 s⁻¹ | SG-559-05 (antibody, human IgG1, kappa, V domains shown) VH: QVQLVQSGAEVKKPGSSVKVSCKTSGDTFSTYAISWVRQAPGQGLEWMGGIIPIAGKAHYAQKFQGRVTITADESTSTAYMELSSLRSEDTAVYFCARKFHFVSGSPFGMDVWGQGTTVTVSS VL: not shown |  |  |  |  |  |
| 24.7 nM | 386000 M⁻¹ s⁻¹ | 0.00953 s⁻¹ | SG-559-16 (antibody, human IgG1, kappa, V domains shown) VH: QVQLVQSGAEVKKPGSSVKVSCKTSGDTFSTYAISWVRQAPGQGLEWMGGIIPIFGKAHYAQKFQGRVTITADESTSTAYMELSSLRSEDTAVYFCARKFHFVSGSPFGMDVWGQGTTVTVSS VL: not shown |  |  |  |  |  |
| 66.6 nM | 329000 M⁻¹ s⁻¹ | 0.0219 s⁻¹ | SG-559-08 (antibody, human IgG1, kappa, V domains shown) VH: QVQLVQSGAEVKKPGSSVKVSCKTSGDTFSTYAISWVRQAPGQGLEWMGGIIPIFGKAAYAQKFQGRVTITADESTSTAYMELSSLRSEDTAVYFCARKFHFVSGSPFGMDVWGQGTTVTVSS VL: not shown |  |  |  |  |  |
